Source: PMC5713876, “Molecular architectures of benzoic acid-specific type III polyketide synthases” (Acta Crystallographica. Section D, Structural Biology, 2017)

Experiments:
[1] = biological target: T1, MdBIS3 (MdBIS3.1) (Malus domestica, UniProt K9MST3); assay: X-ray crystal structure, […] Å; assay type: binding; settings: crystals soaked with 15 mM benzoyl-CoA; CoA tunnel and active site, partial occupancy; active-site cysteine oxidized to sulfinic acid
T1 construct: cDNA in pHIS8, E. coli BL21(DE3), N-terminal His8 tag cut with thrombin; homodimer

[2] = substrate: CC(C)(COP(=O)(O)OP(=O)(O)OC[C@H]1O[C@@H](n2cnc3c(N)ncnc32)[C@H](O)[C@@H]1OP(=O)(O)O)[C@@H](O)C(=O)NCCC(=O)NCCSC(=O)CC(=O)O; assay: steady-state kinetics, LC-MS product quantification; assay type: biochemical, Malus domestica; settings: coumaroyl-CoA held constant (standard 60 µM), 0.1 M potassium phosphate pH 7.0, 37°C
Text: (§1) steady-state kinetics, LC-MS product quantification on MdCHS2

[3] = substrate: CC(C)(COP(=O)(O)OP(=O)(O)OC[C@H]1O[C@@H](n2cnc3c(N)ncnc32)[C@H](O)[C@@H]1OP(=O)(O)O)[C@@H](O)C(=O)NCCC(=O)NCCSC(=O)/C=C/c1ccc(O)cc1; assay: as above; assay type: biochemical, Malus domestica; settings: malonyl-CoA held constant (standard 100 µM), 0.1 M potassium phosphate pH 7.0, 37°C
Text: as §1

[4] = substrate: CC(C)(COP(=O)(O)OP(=O)(O)OC[C@H]1O[C@@H](n2cnc3c(N)ncnc32)[C@H](O)[C@@H]1OP(=O)(O)O)[C@@H](O)C(=O)NCCC(=O)NCCSC(=O)CC(=O)O; assay: as above; assay type: biochemical, Hypericum androsaemum; settings: starter substrate held constant (standard 20 µM), 0.1 M potassium phosphate pH 7.0, 37°C
Text: (§2) steady-state kinetics, LC-MS product quantification on HaBPS

[5] = substrate: CC(C)(COP(=O)(O)OP(=O)(O)OC[C@H]1O[C@@H](n2cnc3c(N)ncnc32)[C@H](O)[C@@H]1OP(=O)(O)O)[C@@H](O)C(=O)NCCC(=O)NCCSC(=O)c1ccccc1; assay: as above; assay type: biochemical, Hypericum androsaemum; settings: malonyl-CoA held constant (standard 80 µM), 0.1 M potassium phosphate pH 7.0, 37°C
Text: as §2

[6] = substrate: CC(C)(COP(=O)(O)OP(=O)(O)OC[C@H]1O[C@@H](n2cnc3c(N)ncnc32)[C@H](O)[C@@H]1OP(=O)(O)O)[C@@H](O)C(=O)NCCC(=O)NCCSC(=O)CC(=O)O; assay: as above; assay type: biochemical, Malus domestica; settings: starter substrate held constant (standard 15 µM; which starter not told), 0.1 M potassium phosphate pH 7.0, 37°C
Text: (§3) steady-state kinetics, LC-MS product quantification on MdBIS3 (MdBIS3.1)

[7] = substrate: CC(C)(COP(=O)(O)OP(=O)(O)OC[C@H]1O[C@@H](n2cnc3c(N)ncnc32)[C@H](O)[C@@H]1OP(=O)(O)O)[C@@H](O)C(=O)NCCC(=O)NCCSC(=O)c1ccccc1O; assay: as above; assay type: biochemical, Malus domestica; settings: malonyl-CoA held constant (standard 60 µM), 0.1 M potassium phosphate pH 7.0, 37°C
Text: as §3

[8] = substrate: CC(C)(COP(=O)(O)OP(=O)(O)OC[C@H]1O[C@@H](n2cnc3c(N)ncnc32)[C@H](O)[C@@H]1OP(=O)(O)O)[C@@H](O)C(=O)NCCC(=O)NCCSC(=O)c1ccccc1; assay: as above; assay type: biochemical, Malus domestica; settings: malonyl-CoA held constant (standard 60 µM), 0.1 M potassium phosphate pH 7.0, 37°C
Text: as §3

[9] = substrate: CC(C)(COP(=O)(O)OP(=O)(O)OC[C@H]1O[C@@H](n2cnc3c(N)ncnc32)[C@H](O)[C@@H]1OP(=O)(O)O)[C@@H](O)C(=O)NCCC(=O)NCCSC(=O)CC(=O)O; assay: as above; assay type: biochemical, Malus domestica; settings: starter substrate held constant (standard 15 µM; which starter not told), 0.1 M potassium phosphate pH 7.0, 37°C; remark: listed apart in the source
Text: (§4) steady-state kinetics, LC-MS product quantification on MdBIS1 (MdBIS1.1)

[10] = substrate: CC(C)(COP(=O)(O)OP(=O)(O)OC[C@H]1O[C@@H](n2cnc3c(N)ncnc32)[C@H](O)[C@@H]1OP(=O)(O)O)[C@@H](O)C(=O)NCCC(=O)NCCSC(=O)c1ccccc1O; assay: as above; assay type: biochemical, Malus domestica; settings: malonyl-CoA held constant (standard 60 µM), 0.1 M potassium phosphate pH 7.0, 37°C; remark: listed apart in the source
Text: as §4

[11] = substrate: CC(C)(COP(=O)(O)OP(=O)(O)OC[C@H]1O[C@@H](n2cnc3c(N)ncnc32)[C@H](O)[C@@H]1OP(=O)(O)O)[C@@H](O)C(=O)NCCC(=O)NCCSC(=O)c1ccccc1; assay: as above; assay type: biochemical, Malus domestica; settings: malonyl-CoA held constant (standard 60 µM), 0.1 M potassium phosphate pH 7.0, 37°C; remark: listed apart in the source
Text: as §4

In the case of CC(C)(COP(=O)(O)OP(=O)(O)OC[C@H]1O[C@@H](n2cnc3c(N)ncnc32)[C@H](O)[C@@H]1OP(=O)(O)O)[C@@H](O)C(=O)NCCC(=O)NCCSC(=O)c1ccccc1 [Benzoyl-CoA], the “X-ray crystal structure, 1.20 Å” value [1] is reported as “co-crystallization of MdBIS3 with benzoyl-CoA, resulting in intact benzoyl-CoA molecules with partial occupancies”.

B1: MdCHS2 (Malus domestica) (protein)
chain: MVTVEEVRKAQRAEGPATVLAIGTATPSNCVDQATYPDYYFRITNSEHKTELKEKFQRMCDKSMIKKRYMYLTEEILKENPTVCEYMAPSLDARQDMVVVEVPRLGKEAATKAIKEWGQPKSKITHLVFCTTSGVDMPGADYQLTKLLGLRPYVKRLMMYQQGCFAGGTVLRLAKDLAENNKGARVLVVCSEITAVTFRGPSDTHLDSLVGQALFGDGAAAVIIGADPLPEVEKPLFELVSAAQTILPDSDGAIDGHLREVGLTFHLLKDVPGLISKNIEKSLNEAFKPIGISDWNSLFWIAHPGGPAILDQVESKLALKPEKLEATRQVLSNYGNMSSACVLFILDEVRRKSTEKGLRTTGEGLEWGVLFGFGPGLTVETVVLHSVAA
notes: cDNA in pHIS8, E. coli BL21(DE3), N-terminal His8 tag cut with thrombin; homodimer
Molecule B1 has a Km [2] of 12.8 ± 2.7 µM, a Km [3] of 17.9 ± 6.1 µM and a kcat [3] of 0.02 ± 0.00167 s⁻¹. It also gave a kcat/Km [3] of 1120 M⁻¹ s⁻¹.

B2: HaBPS (Hypericum androsaemum) (protein)
chain: MAPAMEYSTQNGQGEGKKRASVLAIGTTNPEHFILQEDYPDFYFRNTNSEHMTELKEKFKRICVKSHIRKRHFYLTEEILKENQGIATYGAGSLDARQRILETEVPKLGQEAALKAIAEWGQPISKITHVVFATTSGFMMPGADYVITRLLGLNRTVRRVMLYNQGCFAGGTALRVAKDLAENNEGARVLVVCAENTAMTFHAPNESHLDVIVGQAMFSDGAAALIIGACPDVASGERAVFNILSASQTIVPGSDGAITAHFYEMGMSYFLKEDVIPLFRDNIAAVMEEAFSPLGVSDWNSLFYSIHPGGRGIIDGVAGNLGIKDENLVATRHVLGEYGNMGSACVMFILDELRKSSKVNGKPTTGDGKEFGCLIGLGPGLTVEAVVLQSVPILQ
notes: codon-optimized synthetic gene in pHIS8, E. coli BL21(DE3), N-terminal His8 tag cut with thrombin; homodimer
Work on B2 yielded a Km [4] of 2.8 ± 0.7 µM, a Km [5] of 1.3 ± 0.5 µM and a kcat [5] of 0.0183 s⁻¹. The kcat/Km [5] was 14000 M⁻¹ s⁻¹.

B3: MdBIS3 (MdBIS3.1) (Malus domestica) (protein)
chain: MAPLVKNEPQHAKILAIGTANPPNVYHQKDYPDFLFRVTKNEHRTDLREKFDRICEKSRTKKRYLHLTEEMLKANPNIYTYGAPSLDVRQDICNIEVPKLGQEAALKAIKEWGQPISRITHLIFCTASCVDMPGCDFQLIKLLGLDPSVTRTMIYEAGCYAGATVLRMAKDFAENNKGARVLVVCAEITTVFFHGLTDTHLDILVGQALFADGASAVIVGANPEPEIERPLFEIVACRQTILPNSEHGVVANIREMGFNYYLSGDVPKFVGGNVVDFMTKTFEKVDGKKKDWNSLFFSVHPGGPAIVDQVEEKLGLKEGKLRATRHVLSEYGNMGAPTVHFILDEMRNKSIEEGKTTTGEGLEWGVVIGIGPGLTVETAVLRSESIRC
notes: as for B1
B3 showed a Km [6] of 4.1 ± 1.9 µM, a Km [7] of 1.1 ± 0.4 µM and a kcat [7] of 0.1 ± 0.00167 s⁻¹. The kcat/Km [7] was 90000 M⁻¹ s⁻¹, the Km [8] was 0.5 ± 0.1 µM and the kcat [8] was 0.135 s⁻¹. It also gave a kcat/Km [8] of 270000 M⁻¹ s⁻¹.

B4: MdBIS1 (MdBIS1.1) (Malus domestica) (protein)
chain: MAPLVKNHGEHQHAKILAIGTANPPNVYYQKDYPDFLFRVTKNEHRTDLREKFDRICEKSRTRKRYLHLTEEILKANPSIYTYGAPSLDVRQDMLNPEVPKLGQQAALKAIKEWGQPISKITHLIFCTASCVDMPGADFQLVKLLGLNPSVTRTMIYEAGCYAGATVLRLAKDFAENNEGARVLVVCAEITTVFFHGLTDTHLDILVGQALFADGASAVIVGANPEPKIERPLFEIVACRQTIIPNSEHGVVANIREMGFTYYLSGEVPKFVGGNVVDFLTKTFEKVDGKNKDWNSLFFSVHPGGPAIVDQVEEQLGLKEGKLRATRHVLSEYGNMGAPSVHFILDDMRKKSIEEGKSTTGEGLEWGVVIGIGPGLTVETAVLRSESITC
notes: cDNA in pHIS8, E. coli BL21(DE3), N-terminal His8 tag cut with thrombin
With B4 the Km [9] was 6.8 ± 1.7 µM, the Km [10] was 1.6 ± 0.4 µM and the kcat [10] was 0.2083 ± 0.00167 s⁻¹. For the same molecule, the kcat/Km [10] was 130000 M⁻¹ s⁻¹, the Km [11] was 0.8 ± 0.2 µM and the kcat [11] was 0.2833 ± 0.00167 s⁻¹. It also gave a kcat/Km [11] of 350000 M⁻¹ s⁻¹.
